These molecules were tested on HEK293FT cells transfected with TF library (assay: Screening of TF condensates based on fluorescent puncta). Settings: Figure 1B numerical data; TF library screen, one value per transcriptional factor.
Assay type: cell-based
Procedure, shortened: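 TF plasmids (final 1.6 μg/ml) reverse-transfected with PEI (4.8 μg/ml) into HEK293FT cells; after 60 h, cells cultured ±glucose for 12 h, fixed in 4% PFA and immunostained for Flag or GAL4 tags with Alexa 488 secondaries. Puncta scored by automated imaging of 50 random fields per well.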

Molecule | Z score of condensed fraction
TAF1C (protein, UniProt Q15572 1-869, looked up) TATA box-binding …: MDFPSSLRPALFLTGPLGLSDVPDLSFMCSWRDALTLPEAQPQNSENGALHVTKDLLWEPATPGPLPMLPPLIDPWDPGLTARDLLFRGGCRYRKRPRVVLDVTEQISRFLLDHGDVAFAPLGKLMLENFKLEGAGSRTKKKTVVSVKKLLQDLGGHQPWGCPWAYLSNRQRRFSILGGPILGTSVASHLAELLHEELVLRWEQLLLDEACTGGALAWVPGRTPQFGQLVYPAGGAQDRLHFQEVVLTPGDNPQFLGKPGRIQLQGPVRQVVTCTVQGESKALIYTFLPHWLTCYLTPGPFHPSSALLAVRSDYHCAVWKFGKQWQPTLLQAMQVEKGATGISLSPHLPGELAICSRSGAVCLWSPEDGLRQIYRDPETLVFRDSSSWRWADFTAHPRVLTVGDRTGVKMLDTQGPPGCGLLLFRLGAEASCQKGERVLLTQYLGHSSPKCLPPTLHLVCTQFSLYLVDERLPLVPMLKWNHGLPSPLLLARLLPPPRPSCVQPLLLGGQGGQLQLLHLAGEGASVPRLAGPPQSLPSRIDSLPAFPLLEPKIQWRLQERLKAPTIGLAAVVPPLPSAPTPGLVLFQLSAAGDVFYQQLRPQVDSSLRRDAGPPGDTQPDCHAPTASWTSQDTAGCSQWLKALLKVPLAPPVWTAPTFTHRQMLGSTELRREEEEGQRLGVLRKAMARGQLLLQRDLGSLPAAEPPPAPESGLEDKLSERLGEAWAGRGAAWWERQQGRTSEPGRQTRRPKRRTQLSSSFSLSGHVDPSEDTSSPHSPEWPPADALPLPPTTPPSQELTPDACAQGVPSEQRQMLRDYMAKLPPQRDTPGCATTPPHSQASSVRATRSQQHTPVLSSSQPLRKKPRMGF | 0.1895
TAF9 (protein, UniProt Q8VI33 1-264, looked up) Transcription initiation …: MESGKMASPKSMPKDAQMMAQILKDMGITEYEPRVINQMLEFAFRYVTTILDDAKIYSSHAKKATVDADDVRLAIQCRADQSFTSPPPRDFLLDIARQRNQTPLPLIKPYSGPRLPPDRYCLTAPNYRLKSLQKKAPAPAGRITVPRLSVGSVSSRPSTPTLGTPTPQTMSVSTKVGTPMSLTGQRFTVQMPASQSPAVKASIPATSTVQNVLINPSLIGSKNILITTNMVSQNTAESANALKRKREDDDDDDDDDDDDDYDNM | -0.7072
BIF1 (protein, UniProt Q9Y371 1-365, looked up) Endophilin-B1: MNIMDFNVKKLAADAGTFLSRAVQFTEEKLGQAEKTELDAHLENLLSKAECTKIWTEKIMKQTEVLLQPNPNARIEEFVYEKLDRKAPSRINNPELLGQYMIDAGTEFGPGTAYGNALIKCGETQKRIGTADRELIQTSALNFLTPLRNFIEGDYKTIAKERKLLQNKRLDLDAAKTRLKKAKAAETRNSSEQELRITQSEFDRQAEITRLLLEGISSTHAHHLRCLNDFVEAQMTYYAQCYQYMLDLQKQLGSFPSNYLSNNNQTSVTPVPSVLPNAIGSSAMASTSGLVITSPSNLSDLKECSGSRKARVLYDYDAANSTELSLLADEVITVFSVVGMDSDWLMGERGNQKGKVPITYLELLN | -0.08025
TBR1 (protein, UniProt Q16650 1-682, looked up) T-box brain protein 1: MQLEHCLSPSIMLSKKFLNVSSSYPHSGGSELVLHDHPIISTTDNLERSSPLKKITRGMTNQSDTDNFPDSKDSPGDVQRSKLSPVLDGVSELRHSFDGSAADRYLLSQSSQPQSAATAPSAMFPYPGQHGPAHPAFSIGSPSRYMAHHPVITNGAYNSLLSNSSPQGYPTAGYPYPQQYGHSYQGAPFYQFSSTQPGLVPGKAQVYLCNRPLWLKFHRHQTEMIITKQGRRMFPFLSFNISGLDPTAHYNIFVDVILADPNHWRFQGGKWVPCGKADTNVQGNRVYMHPDSPNTGAHWMRQEISFGKLKLTNNKGASNNNGQMVVLQSLHKYQPRLHVVEVNEDGTEDTSQPGRVQTFTFPETQFIAVTAYQNTDITQLKIDHNPFAKGFRDNYDTIYTGCDMDRLTPSPNDSPRSQIVPGARYAMAGSFLQDQFVSNYAKARFHPGAGAGPGPGTDRSVPHTNGLLSPQQAEDPGAPSPQRWFVTPANNRLDFAASAYDTATDFAGNAATLLSYAAAGVKALPLQAAGCTGRPLGYYADPSGWGARSPPQYCGTKSGSVLPCWPNSAAAAARMAGANPYLGEEAEGLAAERSPLPPGAAEDAKPKDLSDSSWIETPSSIKSIDSSDSGIYEQAKRRRISPADTPVSESSSPLKSEVLAQRDCEKNCAKDISGYYGFYSHS | -0.7739
TBX19 (protein, UniProt Q99ME7 1-446, looked up) T-box transcription factor …: MSELATQKAGEGTVSRLLNVVESELQAGREKGDPTEKQLQIILEDAPLWQRFKEVTNEMIVTKNGRRMFPVLKISVTGLDPNAMYSLLLDFVRTDSHRWKYVNGEWVPAGKPEVSSHSCVYIHPDSPNFGAHWMKAPISFSKVKLTNKLNGGGQIMLNSLHKYEPQVHIVRVGGAHRMVMNCSFPETQFIAVTAYQNEEITALKIKYNPFAKAFLDAKERNHLKDVPEAISESQHVTYSHLGGWILSNPDGVCTAANSNYQYATPLPLPAPHTHHGCEHYAGLRGHRQAPYPSAYMHRNHSPSVNLIESSSNNLQVFSGPDSWTSLSSTPHASILSVPHSNGPINPGPSPYPCLWTISNGGGGPVASGSEVHASTSGTILLGNPAVTSPSSLLPTQATTSAGVEVLGEPSLTSIAVSTWTAVASHPLPGWGGPGGAGRHSSSSLDS | 1.015
TBX20 (protein, UniProt Q9UMR3 1-447, looked up) T-box transcription factor …: MEFTASPKPQLSSRANAFSIAALMSSGGSKEKEATENTIKPLEQFVEKSSCAQPLGELTSLDAHGEFGGGSGSSPSSSSLCTEPLIPTTPIIPSEEMAKIACSLETKELWDKFHELGTEMIITKSGRRMFPTIRVSFSGVDPEAKYIVLMDIVPVDNKRYRYAYHRSSWLVAGKADPPLPARLYVHPDSPFTGEQLLKQMVSFEKVKLTNNELDQHGHIILNSMHKYQPRVHIIKKKDHTASLLNLKSEEFRTFIFPETVFTAVTAYQNQLITKLKIDSNPFAKGFRDSSRLTDIERESVESLIQKHSYARSPIRTYGGEEDVLGDESQTTPNRGSAFTTSDNLSLSSWVSSSSSFPGFQHPQSLTALGTSTASIATPIPHPIQGSLPPYSRLGMPLTPSAIASSMQGSGPTFPSFHMPRYHHYFQQGPYAAIQGLRHSSAVMTPFV | 0.6837
TBX6 (protein, UniProt O95947 1-436, looked up) T-box transcription factor …: MYHPRELYPSLGAGYRLGPAQPGADSSFPPALAEGYRYPELDTPKLDCFLSGMEAAPRTLAAHPPLPLLPPAMGTEPAPSAPEALHSLPGVSLSLENRELWKEFSSVGTEMIITKAGRRMFPACRVSVTGLDPEARYLFLLDVIPVDGARYRWQGRRWEPSGKAEPRLPDRVYIHPDSPATGAHWMRQPVSFHRVKLTNSTLDPHGHLILHSMHKYQPRIHLVRAAQLCSQHWGGMASFRFPETTFISVTAYQNPQITQLKIAANPFAKGFRENGRNCKRERDARVKRKLRGPEPAATEAYGSGDTPGGPCDSTLGGDIRESDPEQAPAPGEATAAPAPLCGGPSAEAYLLHPAAFHGAPSHLPTRSPSFPEAPDSGRSAPYSAAFLELPHGSGGSGYPAAPPAVPFAPHFLQGGPFPLPYTAPGGYLDVGSKPMY | -0.7283
TCEB2 (protein, UniProt Q15370 1-118, looked up) Elongin-B: MDVFLMIRRHKTTIFTDAKESSTVFELKRIVEGILKRPPDEQRLYKDDQLLDDGKTLGECGFTSQTARPQAPATVGLAFRADDTFEALCIEPFSSPPELPDVMKPQDSGSSANEQAVQ | -0.4277
TCF15 (protein, UniProt Q12870 1-199, looked up) Transcription factor 15: MAFALLRPVGAHVLYPDVRLLSEDEENRSESDASDQSFGCCEGPEAARRGPGPGGGRRAGGGGGAGPVVVVRQRQAANARERDRTQSVNTAFTALRTLIPTEPVDRKLSKIETVRLASSYIAHLANVLLLGDSADDGQPCFRAAGSAKGAVPAAADGGRQPRSICTFCLSNQRKGGGRRDLGGSCLKVRGVAPLRGPRR | 0.7138
TCF21 (protein, UniProt O43680 1-179, looked up) Transcription factor 21: MSTGSLSDVEDLQEVEMLECDGLKMDSNKEFVTSNESTEESSNCENGSPQKGRGGLGKRRKAPTKKSPLSGVSQEGKQVQRNAANARERARMRVLSKAFSRLKTTLPWVPPDTKLSKLDTLRLASSYIAHLRQILANDKYENGYIHPVNLTWPFMVAGKPESDLKEVVTASRLCGTTAS | 0.06751
TCF24 (protein, UniProt Q7RTU0 1-167, looked up) Transcription factor 24: MDRGRPAGSPLSASAEPAPLAAAIRDSRPGRTGPGPAGPGGGSRSGSGRPAAANAARERSRVQTLRHAFLELQRTLPSVPPDTKLSKLDVLLLATTYIAHLTRSLQDDAEAPADAGLGALRGDGYLHPVKKWPMRSRLYIGATGQFLKHSVSGEKTNHDNTPTDSQP | -0.9879
TCF25 (protein, UniProt Q9BQ70 1-676, looked up) Ribosome quality control …: MSRRALRRLRGEQRGQEPLGPGALHFDLRDDDDAEEEGPKRELGVRRPGGAGKEGVRVNNRFELINIDDLEDDPVVNGERSGCALTDAVAPGNKGRGQRGNTESKTDGDDTETVPSEQSHASGKLRKKKKKQKNKKSSTGEASENGLEDIDRILERIEDSTGLNRPGPAPLSSRKHVLYVEHRHLNPDTELKRYFGARAILGEQRPRQRQRVYPKCTWLTTPKSTWPRYSKPGLSMRLLESKKGLSFFAFEHSEEYQQAQHKFLVAVESMEPNNIVVLLQTSPYHVDSLLQLSDACRFQEDQEMARDLVERALYSMECAFHPLFSLTSGACRLDYRRPENRSFYLALYKQMSFLEKRGCPRTALEYCKLILSLEPDEDPLCMLLLIDHLALRARNYEYLIRLFQEWEAHRNLSQLPNFAFSVPLAYFLLSQQTDLPECEQSSARQKASLLIQQALTMFPGVLLPLLESCSVRPDASVSSHRFFGPNAEISQPPALSQLVNLYLGRSHFLWKEPATMSWLEENVHEVLQAVDAGDPAVEACENRRKVLYQRAPRNIHRHVILSEIKEAVAALPPDVTTQSVMGFDPLPPSDTIYSYVRPERLSPISHGNTIALFFRSLLPNYTMEGERPEEGVAGGLNRNQGLNRLMLAVRDMMANFHLNDLEAPHEDDAEGEGEWD | 2.145
TCFL5 (protein, UniProt Q9UL49 1-500, looked up) Transcription factor-like 5 …: MSGPGPREPPPEAGAAGGEAAVEGAGGGDAALGEPGLSFTTTDLSLVEMTEVEYTQLQHILCSHMEAAADGELETRLNSALLAAAGPGAGAGGFAAGGQGGAAPVYPVLCPSALAADAPCLGHIDFQELRMMLLSEAGAAEKTSGGGDGARARADGAAKEGAGAAAAAAGPDGAPEARAKPAVRVRLEDRFNSIPAEPPPAPRGPEPPEPGGALNNLVTLIRHPSELMNVPLQQQNKCTALVKNKTAATTTALQFTYPLFTTNACSTSGNSNLSQTQSSSNSCSVLEAAKHQDIGLPRAFSFCYQQEIESTKQTLGSRNKVLPEQVWIKVGEAALCKQALKRNRSRMRQLDTNVERRALGEIQNVGEGATATQGAWQSSESSQANLGEQAQSGPQGGRSQRRERHNRMERDRRRRIRICCDELNLLVPFCNAETDKATTLQWTTAFLKYIQERHGDSLKKEFESVFCGKTGRRLKLTRPDSLVTCPAQGSLQSSPSMEIK | -0.869

— article PMC11574045, “A cofactor-induced repressive type of transcription factor condensation can be induced by synthetic peptides to suppress tumorigenesis” (The EMBO Journal, 2024)
